We go through 29 sequences from the supplement of paper PMC9732359.

± gives the uncertainty stated by the source.

The nature of the data set: protein stability index of a GFP-peptide fusion (yeast GPS) (PSI 1-4); higher = more stable; sorted into four equal gates, so the index is relative within each strain. The method, boiled down: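 Plasmids in a pooled yeast library fused tiled 17-residue yeast protein peptides downstream of GFP and also expressed Cherry. Mid-log cultures grown without leucine were sorted into four equal gates by GFP/Cherry fluorescence ratio. Each gate's plasmids were PCR-amplified and Illumina-sequenced, and reads were matched to strains by barcodes. The protein stability index is derived by multiplying each gate's read frequency by its gate number and summing the results.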

In the case of ANTPSIPTNPVDNENNK [SWI3], the protein stability index (doa10∆) amounted to 2.62 ± 0.08, the protein stability index (pdr5∆) came to 2.8 ± 0.068, the protein stability index (san1∆) stood at 2.68 ± 0.053 and the protein stability index (ubr1∆) is 3.08 ± 0.071.

Regarding ANTPVLRKSELEYYAML [RPL30], the protein stability index by setting is: (doa10∆) 2.57 ± 0.096; (pdr5∆) 2.99 ± 0.093; (san1∆) 2.23 ± 0.095; (ubr1∆) 2.81 ± 0.076.

On to ANVQRLKEYQSKIIVFP [RPL13A], for which the protein stability index (doa10∆) came to 2.93 ± 0.076, the protein stability index (pdr5∆) came out at 3.03 ± 0.093, the protein stability index (san1∆) is 3.05 ± 0.092 and the protein stability index (ubr1∆) was found to be 3 ± 0.067.

As to APAYAWSHNGPFETFDH [CYT1], the protein stability index is, setting by setting: (doa10∆) 2.19 ± 0.098; (pdr5∆) 2.64 ± 0.099; (san1∆) 1.75 ± 0.16; (ubr1∆) 2.78 ± 0.1.

As for APDSEYLCFILSTRAGG [SNF2], the protein stability index by setting is: (doa10∆) 1.97 ± 0.055; (pdr5∆) 1.97 ± 0.058; (san1∆) 2.01 ± 0.063; (ubr1∆) 1.93 ± 0.041.

For the sequence APIADDNHSGDATANAT [DSN1], the protein stability index reads like this: (doa10∆) 3.15 ± 0.1; (pdr5∆) 3.08 ± 0.071; (san1∆) 3.27 ± 0.083; (ubr1∆) 3.38 ± 0.076.

Turning to APIPIREDIDDPLAKVN [BRR2], the protein stability index came out at 2.9 ± 0.075 (doa10∆), 2.66 ± 0.07 (pdr5∆), 2.55 ± 0.09 (san1∆) and 2.22 ± 0.059 (ubr1∆).

The sequence APMYILDEVDAALDLSH [SMC2] gave a protein stability index (doa10∆) of 2.94 ± 0.29, a protein stability index (pdr5∆) of 2.85 ± 0.21, a protein stability index (san1∆) of 2.92 ± 0.23 and a protein stability index (ubr1∆) of 3 ± 0.073.

On to APSIIFMDEIDSIGSTR [RPT6], for which the protein stability index is, setting by setting: (doa10∆) 2.76 ± 0.063; (pdr5∆) 2.89 ± 0.088; (san1∆) 2.83 ± 0.058; (ubr1∆) 2.93 ± 0.054.

On to AQAAQAAQAQAQAQAQA [GAL11], for which the protein stability index by setting is: (doa10∆) 2.53 ± 0.041; (pdr5∆) 2.87 ± 0.046; (san1∆) 2.71 ± 0.034; (ubr1∆) 2.82 ± 0.044.

As for AQADKQDISSSTRVEFE [FAS2], the protein stability index is 3.12 ± 0.081 (doa10∆), 3.17 ± 0.068 (pdr5∆), 3.08 ± 0.06 (san1∆) and 3.33 ± 0.055 (ubr1∆).

With AQAFVELENSSPELKAE [RPS7A], the protein stability index (doa10∆) was found to be 3.08 ± 0.23.

Regarding AQNQGGQVSMSQFNGSG [PGD1], the protein stability index worked out at 3.42 ± 0.12 (doa10∆), 3.29 ± 0.12 (pdr5∆), 2.93 ± 0.081 (san1∆) and 3.23 ± 0.076 (ubr1∆).

Sequence AQQLRNQQQQQQQQQQQ [GAL11] registered a protein stability index (doa10∆) of 2.98 ± 0.095, a protein stability index (pdr5∆) of 2.92 ± 0.11, a protein stability index (san1∆) of 2.92 ± 0.094 and a protein stability index (ubr1∆) of 3.04 ± 0.065.

In the case of AQQQQLSNYPQQIQEQV [YGR119C/NUP57], the protein stability index (doa10∆) was found to be 2.82 ± 0.059, the protein stability index (pdr5∆) is 3.09 ± 0.058, the protein stability index (san1∆) came to 2.71 ± 0.046 and the protein stability index (ubr1∆) amounted to 3.02 ± 0.044.

As to AQTEIKLFNKWSFEEVE [RPS5], the protein stability index stood at 3.2 ± 0.092 (doa10∆), 3.23 ± 0.11 (pdr5∆), 3.51 ± 0.09 (san1∆) and 3.22 ± 0.069 (ubr1∆).

As for ARAVQDNGESAFRTLRL [RPL13A], the protein stability index came to 3 ± 0.13 (doa10∆), 2.88 ± 0.1 (pdr5∆), 1.57 ± 0.098 (san1∆) and 2.87 ± 0.096 (ubr1∆).

For ARFRSIHILKVAEIEKT [RPL20A], the protein stability index reads like this: (doa10∆) 1.2 ± 0.067; (pdr5∆) 1.16 ± 0.051; (san1∆) 1.14 ± 0.088; (ubr1∆) 1.08 ± 0.048.

Turning to ARIHAQNYLKTYNEDIP [PRE9], the protein stability index is 2.28 ± 0.051 (doa10∆), 1.99 ± 0.079 (pdr5∆), 2.75 ± 0.085 (san1∆) and 2.05 ± 0.061 (ubr1∆).

ARILGTRALQISMNAPV [RPO26]: the protein stability index stood at 1.45 ± 0.24 (pdr5∆) and 1.39 ± 0.13 (ubr1∆).

On to ARLEPGTAIGAIGAQSI [RPO31], for which the protein stability index (doa10∆) stood at 2.76 ± 0.097, the protein stability index (pdr5∆) is 1.82 ± 0.079, the protein stability index (san1∆) was found to be 1.49 ± 0.14 and the protein stability index (ubr1∆) was determined as 2.39 ± 0.053.

Turning to ARVLSNYLRQQCNYSSL [PRE5], the protein stability index is 2.71 ± 0.17 (doa10∆), 2.96 ± 0.11 (pdr5∆) and 2.78 ± 0.087 (ubr1∆).

For ARYSIIREINYTMSNHG [RPO31], the protein stability index (ubr1∆) worked out at 1.44 ± 0.23.

With ASDLVLIVIDVVEGVTF [SNU114], the protein stability index (doa10∆) worked out at 1.33 ± 0.041, the protein stability index (pdr5∆) was 1.58 ± 0.059, the protein stability index (san1∆) was 2.07 ± 0.1 and the protein stability index (ubr1∆) was 2.38 ± 0.047.

For ASFQIVEEDHTLGNALR [RPC19], the protein stability index is, setting by setting: (doa10∆) 2.74 ± 0.21; (pdr5∆) 2.22 ± 0.23; (ubr1∆) 3.35 ± 0.26.

As to ASGCNVTPIIDGIVVKN [ARP7], the protein stability index is, setting by setting: (doa10∆) 1.9 ± 0.064; (pdr5∆) 2.38 ± 0.063; (san1∆) 2.25 ± 0.077; (ubr1∆) 2.9 ± 0.055.

Take ASGKEVEKVATAVLSTT [RPN2]: the protein stability index came out at 2.76 ± 0.14 (doa10∆) and 3.47 ± 0.17 (pdr5∆).

Turning to ASISLAIGYPTLPSVGH [RPP0], the protein stability index (doa10∆) turned out to be 2.66 ± 0.075, the protein stability index (pdr5∆) was determined as 2.73 ± 0.059, the protein stability index (san1∆) came out at 2.86 ± 0.11 and the protein stability index (ubr1∆) turned out to be 2.62 ± 0.049.

For ASKYNCDKSVCRKCYAR [RPL40A], the protein stability index was 2.81 ± 0.056 (doa10∆), 2.9 ± 0.058 (pdr5∆), 2.87 ± 0.046 (san1∆) and 2.73 ± 0.053 (ubr1∆).
